In patent US20220218805A1:

T1: Linear … (SEQ ID NO: 15) conjugated to BSA
T1 sequence (peptide, conjugated to BSA): CGGGKLDFG

B1: Ab29 (clone 12D11) (antibody, V domains shown)
VH: QIQLVQSGPELKKPGETVKISCKASGYTFTNYGMNWVKQAPGKGLKWMGWINTYSGEPTYVDDFKGRFAFSLETSASTAYLQINNLKNEDMATYFCARSPGAYYTLDYWGQGTSVTVSS
VL: DIVMSQSPSSLAVSAGEKVTMSCKSSQSLLNSRTRKNYLAWYQQKPGQSPKLLIYWASTRESGVPDRFTGSGSGTDFTLTISSVQAEDLAVYYCKQSYNLYTFGGGTKLEIK
B2: Ab21 (clone 2C6) (antibody, V domains shown)
VH: EVQLQQSGAELVKPGASVKLSCTASGFNIKDTHMHWVKQRPEQGLEWIGKIDPSNGNTQYDPKFQGKATITADTSSNTAYLQLSSLTSEDTAVYYCATGFAYWGQGTLVTVSA
VL: DIQMTQSPASLSASVGETVTITCRASGNIHNYLAWYQQKQGKSPQLLVYNAKTLADGVPSRFSGSGSGTQYSLKINSLQPEDFGSYYCQHFWYTPWTFGGGTKLEIK

Molecular target: T1, Linear … (SEQ ID NO: 15) conjugated to BSA
Experiment: indirect ELISA, hybridoma supernatant on linear peptide-BSA

Binder	OD
B1	0.075 OD
B2	0.107 OD
